{
  "source": "paper PMC4840364",
  "binders": {"B1": {"name": "wild-type 5G6 Fab fragment (recombinant) H:T102A; H:T103A; H:T104A; H:T105A; L:D93A (protein)", "chain 1": "QVTLKESGPGILQPSQTLSLTCSFSGFSLSTSNMGVVWIRQPSGKGLEWLLHILWNDGKFYNPALKSRLTISKDTYNNQVFLKIANVDTADTATYYCARLFAAAASGYFDVWGAGTTVTVSS", "chain 2": "DIQMTQSPASLSASVGETVTITCRASGNIYNYLAWYQQKQGKSPQLLVYNAKTLADGVPSRFSGSGSGTQYSLKINSLQPEDFGSYFCQHFWATPWTFGGGTKLEIK"}},
  "target": "glycoprotein Ibα (GPIbα) on human platelets, P07359",
  "test": "flow cytometry on cells",
  "conditions": "chain shown with the change, human platelets incubated 20 min, washed once, FITC-conjugated goat anti-mouse IgG, MFI of 10,000 cells, read off a plot",
  "data": [
    {"binder": "B1", "values": [
      {"measurement": "response", "setting": "[mAb] about 37 nM (read from x axis), parent: est. 320", "result": 8, "unit": "a.u."},
      {"measurement": "response", "setting": "[mAb] about 110 nM (read from x axis), parent: est. 290", "result": 10, "unit": "a.u."}
    ]}
  ]
}
